B1: TPR t1 (parent)
chain: GACCAAUCUGCCCUCAGAGCUCGAGAACAUCUUCGGAUGCAGAGGAGGCAGGCUUCGGUGGCGCGAUAGCGCCAACGUCCUCAACCUCCAAUGCAUCCCACCACAUGAUGAUGCCUGAAGAGCCUUGGUUUUUUG

The variants in the series derive from B1. The experiment in a line: polymerase ribozyme fitness, log enrichment relative to wild type (log ratio); higher = more active; in vitro selection for triplet polymerase activity. In a few lines: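 One round of in vitro selection, in triplicate, was applied to PCR-built, transcribed mutant libraries of each subunit of a heterodimeric triplet polymerase ribozyme. The steps were annealing with a biotinylated primer, partner subunit and triplets, incubation frozen at −7 °C, gel excision of extended constructs, streptavidin-bead capture and RT-PCR. Fitness is the logarithm, base 2, of genotype enrichment over wild-type enrichment from inverse-variance-weighted replicate averages of Illumina-sequenced inputs and outputs, keeping genotypes with ≥10 input reads and ≥1 read per output.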
On to C15A A29U G69A G120C, for which the “polymerase ribozyme fitness (log ratio)” value was -1.85. The value for C15U G52A G93A A95G was -2.44; that for U14G G44C G71U U78A was -3.39. As for C13U G71U U78G U133G, the figure is -0.454; as for U14G A50G A84G, -3.03; as for C15U G48U A74C G77C, -2.27. Consider C15A C20U C73A G93A, for which the “polymerase ribozyme fitness (log ratio)” value was -3.83. Take C15A A37G G45U C72A G93U U112C G122C C123G U125A: the “polymerase ribozyme fitness (log ratio)” value was -3.59. As for C15A G71A A91G U112A G113C, the figure is -5.47; as for U14G G45C C94A C123U, -3.17; as for C13U U92A, -2.13. For the variant A16C G60C A111G, the “polymerase ribozyme fitness (log ratio)” value is -1.81. For C15A C73U, the “polymerase ribozyme fitness (log ratio)” value is -2.31. The value for A16C A41U G52C C64G C82G G110C was -6.92; that for A16G A41U G60U C86G C124G was -2.13. The value for U14G A90C was -3.4. The value for C15G A24G C89G C124G was -6.51. With U14A U81A, the “polymerase ribozyme fitness (log ratio)” value was -4.19. In the case of U14G G47C C85G G117A, the “polymerase ribozyme fitness (log ratio)” value was -5.3. As for C15G A29G C88G U129A, the “polymerase ribozyme fitness (log ratio)” value was -3.95. The value for C15U G44U G63C A66U G117U G128A was -6.51.

For U14G C70G U116G, the “polymerase ribozyme fitness (log ratio)” value was -5.13. As for C15U G69A G113C, the figure is -5.7; as for C15G C49G C89U C115G, -4.39; as for C15U U21A U96G A118U, -0.0472. The value for C13U U131A was -0.274; that for C15A A90G G93A A103U G120U was -6.55; that for C15U C72U was -1.62. As for U14A C123U G127A, the figure is -0.509; as for U14A C72G, -2.35; as for C15U G19A C89A, -5.15. As to A16G A50U U81G, the “polymerase ribozyme fitness (log ratio)” value is -2.01. As for U14G C72A, the figure is -2.6; as for U14G C72G, -2.44; as for U14G C72U, -1.52.

Turning to C15G C56G G57C C72G C104U U131C, the “polymerase ribozyme fitness (log ratio)” value is -4.86. The value for C15U G17C A121C was -2.22; that for C15G G63C A84C was -4.12; that for C15U A16C was -2.44. In the case of C15G C34A C70G A121C, the “polymerase ribozyme fitness (log ratio)” value is -6.55.

Take A16G G113A: the “polymerase ribozyme fitness (log ratio)” value is -2.04. The value for A16G G113C was -3.85; that for A16G U32A A50C C88U C123G U125A was -3.77.

As for U14C A46U G60C U116C G117A, the “polymerase ribozyme fitness (log ratio)” value was -5.66.

Turning to U14G G44A C72U C104U, the “polymerase ribozyme fitness (log ratio)” value is -2.42. The value for C15U U33G G61U U87A U112C was -4.85; that for U14G G61U was -1.11.

On to C15U A26G G63C G71A C102U U109G U112A U129A, for which the “polymerase ribozyme fitness (log ratio)” value is -3.42. As for C15U A50C, the figure is -1.84; as for C15A U106A, -1.94. Regarding C15A U106C, the “polymerase ribozyme fitness (log ratio)” value was -2.44.

Regarding C15A A41U A43U G61A G113A G122A, the “polymerase ribozyme fitness (log ratio)” value is -5.83. As for C15A G52U C94G, the figure is -3.9; as for U14G G113C, -4.24; as for U14G G113U, -5.7. C15U C62U U112G: the “polymerase ribozyme fitness (log ratio)” value was -0.275. The value for A16G C94U was -1.93.

Turning to C15U C86U, the “polymerase ribozyme fitness (log ratio)” value is -1.61. As for U14G C73G C82A, the figure is -3.08; as for U14C A18G, -4.78; as for C15A C101G C124G, 0.0121.

For the variant C15U C34G C49G G69U G120A, the “polymerase ribozyme fitness (log ratio)” value is -3.56. As for C15U C72A C73A U81A A84G, the figure is -4.77; as for U14A C40U C64U A91U, -4.67.

Regarding U14G A68G U112G, the “polymerase ribozyme fitness (log ratio)” value is -5.15.

With C15A G39A G69A U87G U112G, the “polymerase ribozyme fitness (log ratio)” value was -4.24. The value for U14G G45C G110U was -3.81. The value for C13U U81A was -0.11; that for C15U G47U G52C C53A C124G was -1.51; that for U14G U21C was -2.74. With U14A G44U G117U A118U, the “polymerase ribozyme fitness (log ratio)” value is -4.78. As for C13U U30C A46U C73U, the figure is -5.98; as for C15A C104U G110A, -2.85; as for C15A C49U G61A, -1.73. The value for U14G G60C C70U was -3.06; that for A16C G52A C70U C73U was -3.8; that for C15A C114U was -4.61. The value for C15U C104U G117U was -0.366; that for U14A C114U was -5.22; that for U14G C53U U87A was -2.67. For the variant A16G C62U, the “polymerase ribozyme fitness (log ratio)” value is -1.57. As for C15U A18G U59A G93C C104U, the figure is -5.54.

Consider C15U U54G, for which the “polymerase ribozyme fitness (log ratio)” value was -1.23. For the variant A16G G51C C82A C124G, the “polymerase ribozyme fitness (log ratio)” value was -3.19. The value for C15G G61C was -2.41; that for C15G G77C was -2.39; that for C15U A41U G48U was -3.71. As for A16G C28U U54G A121G, the figure is -0.979. The value for C15U G39C was -1.93; that for C15U G39A was -3.08; that for U14A G36A was -3.62. Regarding U14G G48A A50G C72A G120C A121C, the “polymerase ribozyme fitness (log ratio)” value was -1.94. With C15U C70G U78A C86G G127A, the “polymerase ribozyme fitness (log ratio)” value was -5.32. The value for U14C C40A U87C was -3.01; that for U14C G113A was -3.18. C15A C70G C99A G117A C124A G128A: the “polymerase ribozyme fitness (log ratio)” value is -6.67. In the case of U14C U21C G61A C101U, the “polymerase ribozyme fitness (log ratio)” value is -3.37. The value for C15U U130A was -1.54; that for A16C C82G was -3.22. The value for U14A G17A C20G C115U was -5.9. The value for A16C C49A A74C C88A U116C was -3.06; that for A16C C56U A84C C85U A100C was -4.89; that for C15U C102U was -3.1. Take C13U G71U U78C: the “polymerase ribozyme fitness (log ratio)” value was found to be 0.0986. Take U14C G36C U133A: the “polymerase ribozyme fitness (log ratio)” value is -4.29.

In the case of A16G G71C C124A U130A, the “polymerase ribozyme fitness (log ratio)” value was found to be 0.62. On to U14G C40A G71U A121G G127U, for which the “polymerase ribozyme fitness (log ratio)” value came to 0.306. As for C15U C20A U81G U112G, the figure is -6.15. The value for U14C C49A C56U U92G C97U A111U was -6.85; that for U14G G71A was -1.59; that for C15A C64G C70A U92C G110C C115U G127U was -7.47. The value for A16G U92C C102A was -5.14; that for A16G C53G A84C C88A C101G was -4.3. Consider A16C U38G C70A, for which the “polymerase ribozyme fitness (log ratio)” value is -4.31.

For C15A G71U, the “polymerase ribozyme fitness (log ratio)” value is -2.58. As for C15U G58A, the figure is -1.84; as for C15U C73U, -1.36; as for U14G G47C C70U C85G G117A, -7.02. As to C15A C53A C72G A103C G113A G117A, the “polymerase ribozyme fitness (log ratio)” value is -6.79. As for C15A G57A C94U, the figure is -2.78; as for C15A G60C U116C, -3.39; as for U14C G61A G110C, -5.14. As to C15U G17C C72A A121C, the “polymerase ribozyme fitness (log ratio)” value was -1.65. The value for A16G G35U C49G C115A A119G A121U was -4.09; that for U14C C49U A50U U55A was -6.51; that for U14G G117A was -2.92. As for A16G G61C C72U U81A U106A U116C, the figure is 1.38; as for C15U G52U, -2.36; as for C15U C79U, -1.97. The value for U14C A46U A74G was -1.32; that for C15U A83G U87C was -2.34; that for U14C U116G G120A U129A was -2.37. With C15G A84U, the “polymerase ribozyme fitness (log ratio)” value was -2.56. The value for A16G A27C C72U C123U was -3.64; that for C15U C99U G120C G122U was -3.71; that for U14G A50U G61C C86A was -4.54.

In the case of A16C C97U A100U, the “polymerase ribozyme fitness (log ratio)” value was -3.88. As for C15U A37G C64U, the figure is -1.81; as for C15A C53A G77A C101G G120A C124A, -1.12. As for C15G C62G, the figure is -5. As for C15G C72U A100U, the figure is -3.69; as for U14C G36U A41U, -5.76. With A16G G42U C49A C56U G61A U96G U109G U134A, the “polymerase ribozyme fitness (log ratio)” value is -5.05. The value for C15G U132C was -2.23; that for A16C C72G C82G G120C was -1.82.

On to U14A A111G U130A, for which the “polymerase ribozyme fitness (log ratio)” value is -3.57. As for C15G G17C, the figure is -4.24; as for C13U U14C G48U, -3.25. Consider C15U A95G C114G, for which the “polymerase ribozyme fitness (log ratio)” value was -4.48.

In the case of C15A G60U U131A, the “polymerase ribozyme fitness (log ratio)” value was -1.3. As for U14C U54G G93C C104U U116G, the figure is -3.88.

On to C13U U132C, for which the “polymerase ribozyme fitness (log ratio)” value was 0.0693. As for A16C A37C U112C, the figure is -2.37; as for C15G G17U C40U, -4.85; as for A16C A50U, -4.64. For the variant C15G A16G C49U C56U G117U, the “polymerase ribozyme fitness (log ratio)” value is -1.99. As for C15G A37G A66U, the figure is -5.5; as for C15G C89U A90G, -2.42. As for C15A G39A C53A U125A, the figure is -3.62.

Take U14C U112G G113U: the “polymerase ribozyme fitness (log ratio)” value is -5.07. As for C15A U92A U132A, the figure is -4.82; as for C15U G39C A66U G69C A75U, -3.53.

Take C15A A24G: the “polymerase ribozyme fitness (log ratio)” value is -5.73. As for U14G G128A, the figure is -3.77.

Turning to C15A G44U, the “polymerase ribozyme fitness (log ratio)” value was -2.85. The value for A16C C22U G60C G93C A118U A121G was -6.04.

Consider U14G A50C C101A, for which the “polymerase ribozyme fitness (log ratio)” value is -3.99.
